Assay results: publication PMC8718897 (Translational Oncology, 2021)

Biological target: Krüppel-like factor 9 (KLF9) (human (endogenous in MDA-MB-231), UniProt Q13886 1-244)
Test: co-IP

Sequence of Krüppel-like factor 9 (KLF9) (Q13886 whole entry): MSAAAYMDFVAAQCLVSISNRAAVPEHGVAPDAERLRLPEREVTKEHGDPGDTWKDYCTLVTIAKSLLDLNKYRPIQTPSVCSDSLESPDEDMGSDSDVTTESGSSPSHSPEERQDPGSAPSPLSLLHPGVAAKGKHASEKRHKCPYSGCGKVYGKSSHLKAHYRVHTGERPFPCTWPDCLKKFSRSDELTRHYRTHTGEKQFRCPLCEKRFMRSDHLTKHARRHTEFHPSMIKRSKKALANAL

fold increase of association after 24 h with 5 uM PF1-SID peptide: 4.6 fold | fold increase of association in PF1-SID cells against vector cells: 2.5 fold
B1: SIN3A (natural protein, UniProt Q96ST3 1-1273, looked up)
chain: MKRRLDDQESPVYAAQQRRIPGSTEAFPHQHRVLAPAPPVYEAVSETMQSATGIQYSVTPSYQVSAMPQSSGSHGPAIAAVHSSHHHPTAVQPHGGQVVQSHAHPAPPVAPVQGQQQFQRLKVEDALSYLDQVKLQFGSQPQVYNDFLDIMKEFKSQSIDTPGVISRVSQLFKGHPDLIMGFNTFLPPGYKIEVQTNDMVNVTTPGQVHQIPTHGIQPQPQPPPQHPSQPSAQSAPAPAQPAPQPPPAKVSKPSQLQAHTPASQQTPPLPPYASPRSPPVQPHTPVTISLGTAPSLQNNQPVEFNHAINYVNKIKNRFQGQPDIYKAFLEILHTYQKEQRNAKEAGGNYTPALTEQEVYAQVARLFKNQEDLLSEFGQFLPDANSSVLLSKTTAEKVDSVRNDHGGTVKKPQLNNKPQRPSQNGCQIRRHPTGTTPPVKKKPKLLNLKDSSMADASKHGGGTESLFFDKVRKALRSAEAYENFLRCLVIFNQEVISRAELVQLVSPFLGKFPELFNWFKNFLGYKESVHLETYPKERATEGIAMEIDYASCKRLGSSYRALPKSYQQPKCTGRTPLCKEVLNDTWVSFPSWSEDSTFVSSKKTQYEEHIYRCEDERFELDVVLETNLATIRVLEAIQKKLSRLSAEEQAKFRLDNTLGGTSEVIHRKALQRIYADKAADIIDGLRKNPSIAVPIVLKRLKMKEEEWREAQRGFNKVWREQNEKYYLKSLDHQGINFKQNDTKVLRSKSLLNEIESIYDERQEQATEENAGVPVGPHLSLAYEDKQILEDAAALIIHHVKRQTGIQKEDKYKIKQIMHHFIPDLLFAQRGDLSDVEEEEEEEMDVDEATGAVKKHNGVGGSPPKSKLLFSNTAAQKLRGMDEVYNLFYVNNNWYIFMRLHQILCLRLLRICSQAERQIEEENREREWEREVLGIKRDKSDSPAIQLRLKEPMDVDVEDYYPAFLDMVRSLLDGNIDSSQYEDSLREMFTIHAYIAFTMDKLIQSIVRQLQHIVSDEICVQVTDLYLAENNNGATGGQLNTQNSRSLLESTYQRKAEQLMSDENCFKLMFIQSQGQVQLTIELLDTEEENSDDPVEAERWSDYVERYMNSDTTSPELREHLAQKPVFLPRNLRRIRKCQRGREQQEKEGKEGNSKKTMENVDSLDKLECRFKLNSYKMVYVIKSEDYMYRRTALLRAHQSHERVSKRLHQRFQAWVDKWTKEHVPREMAAETSKWLMGEGLEGLVPCTTTCDTETLHFVSINKYRVKYGTVFKAP
